The target of one assay is T1, NPSR WT (Homo sapiens, UniProt Q6W5P4).
T1 construct: The primary structure of the wildtype NPSR (NPSR WT) is identical to isoform A of GPRA; expressed in transfected cells
T1 sequence (Q6W5P4 1-371): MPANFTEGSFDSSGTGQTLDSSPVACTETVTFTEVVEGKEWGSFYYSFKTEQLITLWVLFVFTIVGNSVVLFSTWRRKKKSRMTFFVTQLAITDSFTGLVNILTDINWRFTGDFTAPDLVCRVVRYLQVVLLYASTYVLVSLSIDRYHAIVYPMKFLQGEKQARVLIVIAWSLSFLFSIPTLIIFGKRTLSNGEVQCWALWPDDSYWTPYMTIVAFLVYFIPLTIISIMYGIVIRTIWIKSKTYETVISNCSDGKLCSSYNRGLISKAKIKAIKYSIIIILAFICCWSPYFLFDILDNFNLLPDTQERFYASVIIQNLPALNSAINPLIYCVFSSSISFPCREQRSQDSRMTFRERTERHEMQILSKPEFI
The assay can be described thus: Intracellular Ca2+ mobilization (FLIPR) in HEK 293 cells stably expressing NPSR WT. The assay is classed as cell-based. The conditions noted are these: for agonist activity, Ca2+ mobilization: individual HEK 293 clone; for agonist potency compared to the human peptide: Ca2+ mobilization. The procedure: (§1) Changes of agonist-induced intracellular Ca^2+ were measured using the FLIPR technology as described before (5, 6). NPS and truncated NPS peptides were a gift from Phoenix Pharmaceuticals (Belmont, Calif.). Dose-response curves were calculated using GraphPad Prism (Graph Pad, San Diego). Mean EC50 values of populations of stable clones expressing either wildtype or mutant NPSR were compared using unpaired t-test and p<0.05 was considered significant.
(§2) Two cells lines expressing similar levels (measured by radioligand binding; see below) of either NPSR WT or NPSR Ile were chosen for detailed analyses of pharmacological parameters. […] In order to investigate whether this tenfold increase in agonist potency at NPSR lie was a general property of the receptor protein we compared a large number of stable clones expressing either NPSR WT or NPSR Ile^107 by establishing dose-response curves for each construct and calculating mean EC50 values for the populations.

Another assay addresses T2, NPSR Ile^107 (Homo sapiens, UniProt Q6W5P4, N107I).
T2 construct: The Ile^107 isoform of NPSR was generated by PCR using synthetic oligonucleotides and the Quik Change Site-Directed Mutagenesis kit from Stratagene; expressed in transfected cells
T2 sequence (Q6W5P4 1-371 N107I): T1 sequence (Q6W5P4 1-371) with N107I
The assay can be described thus: Intracellular Ca2+ mobilization (FLIPR) in HEK 293 cells stably expressing NPSR Ile107. The assay is classed as cell-based. Particulars: for agonist activity, Ca2+ mobilization: individual HEK 293 clone; for agonist potency compared to the human peptide: Ca2+ mobilization. The procedure: as §1, §2

The target of the next assay is T3, human NPSR (Homo sapiens, UniProt Q6W5P4).
T3 construct: This receptor protein is identical to the NPSR that we have studied extensively for its pharmacology; expressed in transfected cells
T3 sequence (Q6W5P4 1-371): T1 sequence (Q6W5P4 1-371)
The assay can be described thus: Mobilization of intracellular Ca2+ (FLIPR) in HEK 293T cells stably expressing human NPSR. In kind it is cell-based. Particulars: for EC50: HEK 293T cells stably expressing human NPSR, read-out: EC50 for mobilization of [Ca2+]i. On the procedure: Cell lines stably expressing human NPSR in both Chinese hamster ovary (CHO) cells and human embryonic kidney 293 T cells (HEK 293T) were used to define the pharmacological characteristics of NPS. […] HEK 293T cells and CHO dhfr(−) cells were transfected with the human NPSR cDNA cloned into pcDNA 3.1(+) using LipofectAmine. Stable clones were selected with 800 mg/l G418 and tested for mobilization of intracellular Ca^2+ with 100 nM NPS (generous gift of Phoenix Pharmaceuticals, Belmont, Calif.). Changes in intracellular Ca^2+ were measured in a fluorometric imaging plate reader system (FLIPR, Molecular Devices) as described before(Saito et al., 1999). Dose response curves for agonist activation were calculated from peak fluorescence values of triplicate incubations and EC50 values were calculated with Prism software (GraphPad, San Diego, Calif.).

Assay [1] concerns the target human Neuropeptide S receptor, wildtype (NPSR WT) (human) (UniProt Q6W5P4). Briefly: cell-based or functional assay.
The conditions of assay [2]: single i.c.v. injection; cited from earlier work.
The test system of another assay is rodents. Particulars: cited from earlier work.
For assay [3], the target named is T4, human Neuropeptide S receptor, wildtype (NPSR WT) (human, UniProt Q6W5P4 1-371).
T4 construct: Stably expressed in CHO dhfr(-), HEK 293T or HEK 293 cells; also called hNPSR; human NPSR
T4 sequence: T1 sequence (Q6W5P4 1-371)
Briefly: saturation binding of [125I] Y10-NPS to stable clones, intact cells.

In assay [4] the target is T5, human Neuropeptide S receptor Ile107 isoform (NPSR Ile107) (human, UniProt Q6W5P4 1-371).
T5 construct: also called NPSR lie; Asn107Ile variant
T5 sequence: T1 sequence (Q6W5P4 1-371) with N107I
The description is as above.

The target of assay [5] is T4, human Neuropeptide S receptor, wildtype …. Briefly: saturation radioligand binding to intact CHO cells stably expressing hNPSR. The procedure: (§3) The monoiodinated form of Y^10-NPS was used as a radioligand in receptor binding experiments. […] No specific binding was detected in mock-transfected CHO cells.
(§4) CHO cells stably expressing human NPSR were seeded into 24-well plates and cultured for 48 hours. […] Nonspecific binding was determined in the presence of 1 µM unlabeled human NPS. The binding assay was carried out as described (Sakurai et al., 1998). In brief, cells were washed with PBS first and then incubated with radioligand with or without unlabeled NPS peptide in DMEM medium containing 0.1% bovine serum albumin at 20° C. for 1.5 h. Cells were washed 5 times with cold PBS and lysed with 1 N NaOH. Bound radioactivity was counted in a MicroBeta liquid scintillation counter (EG&G Wallac, Gaithersburg, Md.) and corrected for counting efficiency. Data from triplicate incubations were analyzed using PRISM.

The target is the same in assay [6]. The assay can be described thus: saturation binding of [125I] Y10-NPS to stable clones, intact cells, average of n=4 clones.
Assay [7] has as its target T5, human Neuropeptide S receptor Ile107 …. The description is as above.
The target in assay [8] is T4, human Neuropeptide S receptor, wildtype …. Briefly: cell-based or functional assay.
Assay [9] concerns the target T5, human Neuropeptide S receptor Ile107 …. The assay can be described thus: cell-based or functional assay.
The target of assay [10] is human Neuropeptide S receptor C-terminal splice variant (NPSR C-alt) (human), Q6W5P4. The assay can be described thus: cell-based or functional assay.
Assay [11] addresses T4, human Neuropeptide S receptor, wildtype …. The assay can be described thus: displacement of 0.15 nM [125I] Y10-NPS from CHO cells stably expressing hNPSR by unlabeled human NPS. The procedure: as §3, §4

The values that follow come from patent publication US9012407B2, “Therapies which act on neuropeptide S receptors” (The Regents of the University of California, priority 2004, dated 2015).

Residue numbers refer to the chain shown, from its start. Where no end group is shown, it is not given here. The star is where a group is joined. 125I = radioactive iodine-125 label on the tyrosine, [125I]*

As to “NPS 4-20: human NPS fragment with the three amino-terminal amino acids deleted (NGVGTGMKKTSFQRAKS)”, the “agonist activity, Ca2+ mobilization” value in the assay with NPSR WT and in the assay with NPSR Ile^107 was “completely abolished agonist activity” each time.

As for SFRNGVGSGAKKTSFRRAKQ [mouse NPS], at human NPSR, the EC50 was found to be 3 ± 1.3 nM. Also, the “agonist potency compared to the human peptide” value on NPSR WT and on NPSR Ile^107 was “slightly more potent” throughout.

The molecule “mouse Neuropeptide S (from UniProt P0C0P8 70-89)” had an EC50 for mobilization of [Ca2+]i, HEK 293T cells stably expressing human NPSR in [1] of 3 nM.

On to SFRNGVGSGVKKTSFRRAKQ [rat NPS], for which, at human NPSR, the 50% effective concentration (EC50) was 3.2 ± 1.1 nM. Moreover, the “agonist potency compared to the human peptide” value on NPSR WT and on NPSR Ile^107 was “slightly more potent” each time.

With “Hcrt/Ox: neuropeptide hypocretin 1/orexin A, literature comparison (QPLPDCCRQKTCSCRLYELLHGAGNHAAGILTL; ends and bridges not checked; cysteine pairing not given here; UniProt O43612 34-66, looked up)”, the duration of arousal in [2] is 2 to 3 h. In addition, the “effect on anxiety-like behavior” value in the assay on rodents was “no effect”.

Consider “rat Neuropeptide S (from UniProt P0C0P7 70-89)”, for which the EC50 for mobilization of [Ca2+]i, HEK 293T cells stably expressing human NPSR in [1] was 3.2 nM.

With “NPS 1-12: carboxy-terminally truncated fragment of human NPS, residues 1-12 (SFRNGVGTGMKK)”, in the assay with NPSR WT, the “antagonist activity against activation by NPS 1-20” value is reported as “failed to block activation” and the “agonist activity, Ca2+ mobilization” value was “almost completely lost agonist activity”. For the same molecule, in the assay with NPSR Ile^107, the “antagonist activity against activation by NPS 1-20” value is on record as “failed to block activation” and the “agonist activity, Ca2+ mobilization” value is “full, but weakly potent, agonist”.

As for “NPS 1-10: human NPS fragment, residues 1-10, after deletion of the two lysines at positions 11 and 12 (SFRNGVGTGM)”, the “agonist activity, Ca2+ mobilization” value with NPSR WT and in the assay with NPSR Ile^107 was “full agonist activity” each time.

In the case of “H-SFRNGVGTGYKKTSFQRAKS-OH [Human Y^10-NPS]”, the agonist activity entry on human NPSR (human NPSR, Ca2+ mobilization) is given as “full agonist activity”.

B1: [125I] Y10-hNPS (monoiodinated human Y10-NPS radioligand) (peptide)
peptide: SFRNGVGTGY(125I)KKTSFQRAKS
modifications: also: monoiodinated with 125I (chloramine T)
notes: Human NPS in which the residue at position 10 is replaced by tyrosine, then radioiodinated; also called Y10-NPS; the radioligand
Take B1: the equilibrium dissociation constant (Kd) in [3] was 0.2 to 0.45 nM; in [4], 0.17 to 0.4 nM; in assay [5] it was 0.33 nM; in [6] it was 0.347 nM; in assay [7], 0.403 nM.

B2: human Neuropeptide S (hNPS) (peptide)
peptide: SFRNGVGTGMKKTSFQRAKS-OH
notes: 20-residue mature peptide with free C-terminus (-OH); also called human NPS; NPS 1-20
Regarding B2, in [8], the “EC50, CRE-luciferase reporter, transiently transfected HEK 293 cells” value was determined as 76.6 nM; the “EC50, MAPK phosphorylation, stable HEK cells” value amounted to 1.23 nM; the “EC50, cAMP accumulation, stable HEK clone” value is 31.9 nM; the “EC50, increase in intracellular Ca2+ in cells stably expressing NPSR WT” value was in the range of 5 to 10 nM. In assay [8], the “EC50, intracellular free Ca2+, single stable HEK 293 clone” value is 12.4 nM; the “EC50 for mobilization of [Ca2+]i, HEK 293T cells stably expressing human NPSR” value stood at 9.4 nM; the “mean EC50, NPS-induced CRE-luciferase reporter gene expression, n=7 stable HEK clones” value was determined as 45.1 nM; the “mean EC50, NPS-induced mobilization of intracellular Ca2+, n=16 stable clones” value came out at 13 nM. Further, in assay [9], the “EC50, CRE-luciferase reporter, transiently transfected HEK 293 cells” value is 17.3 nM; the “EC50, MAPK phosphorylation, stable HEK cells” value was found to be 0.32 nM; the “EC50, cAMP formation, stable HEK clone” value was 3.45 nM; the “EC50, intracellular free Ca2+, single stable HEK 293 clone” value was determined as 1.4 nM. For the same molecule, in assay [9], the “mean EC50, NPS-induced CRE-luciferase reporter gene expression, n=21 stable HEK clones” value turned out to be 0.63 nM and the “mean EC50, NPS-induced mobilization of intracellular Ca2+, n=21 stable clones” value was 1.01 nM. The same molecule showed an EC50, CRE-luciferase reporter, transiently transfected HEK 293 cells in assay [10] of 146 nM. In [11], this molecule returned an IC50 of 0.42 nM.

SFRNGVGTGYKKTSFQRAKS [Human Y10-NPS (unlabeled)]: the “EC50, agonist activity (Ca2+ mobilization, data not shown)” value in [8] came out at 6.7 nM.
